# Results: US20050113284A1, “Drug for regenerating tissue and vessel and method therefor” (priority 2001, published 2005)
# Biological target: T1, MERMUC bait protein (Homo sapiens, UniProt Q8N307)
# T1 construct: Bait-2 corresponds to a 123 amino acid portion of the C-terminus (bait-2); expressed in transfected cells; host or cells: yeast AH109 strain (pGBKT7 bait vector)
# T1 sequence (Q8N307 587-709): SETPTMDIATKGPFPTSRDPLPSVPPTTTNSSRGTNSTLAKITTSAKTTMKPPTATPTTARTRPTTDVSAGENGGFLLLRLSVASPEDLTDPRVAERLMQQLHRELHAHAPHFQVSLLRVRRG
# Test: Yeast two-hybrid binding of c-Met prey deletion proteins to MERMUC bait-2
# Details: yeast growth on SD/-Leu,-Trp,-His and SD/-Leu,-Trp,-Ade; human MERMUC bait-2
# Procedure: The present invention was performed using the reported yeast two-hybrid system (Proc. Natl. Acad. Sci. USA., 1991, Vol. 88, p.9578-9582) based on conventional method and the experimental protocols appended to the reagents.
# PCR was performed using DNA (clone No. 3-309) corresponding to the 91 amino acids (amino acids 993-1083 of SEQ ID NO: 4) of the C-terminal region of the human HGF receptor c-Met β chain that was identified in the previous Example to have the binding ability to the cytoplasmic region of human MERMUC as a template. […]
# The binding activity between the c-Met prey proteins derived from the 7 DNA fragments and the MERMUC bait protein was analyzed by the yeast two-hybrid system described in Example 1. Specifically, the binding activity was evaluated based on the growth of yeast transformed with the vector on 2 kinds of yeast minimum media, i.e., (1) SD/-Leu, -Trp, -His media and (2) SD/-Leu, -Trp, -Ade media.
substance,measurement,value
"prey DNA G: c-Met prey protein, amino acids 993-1043 of SEQ ID NO: 4 (RRLLQPEYCPDPLYEVMLKCWHPKAEMRPSFSELVSRISAIFSTFIGEHYV; listed as Homo sapiens)",binding activity with MERMUC bait protein,− (no binding).
